Results: US7049292 (dated 2006)

B1: preproinsulin C19-A3 (peptide)
chain: GSLQPLALEGSLQKRGIV
B2: preproinsulin C4-C27 (peptide)
chain: DLQVGQVELGGGPGAGSLQPLALE
B3: preproinsulin C13-C32 (peptide)
chain: GGGPGAGSLQPLALEGSLQK
B4: preproinsulin C22-A5 (peptide)
chain: QPLALEGSLQKRGIVEQ

Each binder was assayed against HLA-DR4 (human) (assay: competition).
For B1, the IC50 was 500 nM. Binder B2 has an IC50 of 33000 nM. In the case of B3, the IC50 is reported as 5000 nM. With B4 the IC50 was 400 nM.
